From the nanobody polyreactivity screen of Harvey et al. (2022)

assay: yeast display, Sf9 membrane polyspecificity reagent, FACS + sequencing; frameworks hold sequencing errors
Procedure, shortened: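 Polyreactivity labels are assigned by the sorting gate from which each nanobody was recovered. The gates were low and high (top ~1%), set on anti-HA fluorescence for expression and streptavidin fluorescence for reagent binding. Before sorting, galactose-induced (36–48 hours) yeast display cells were stained for 1 hour at 4 °C with 10% biotinylated, detergent-solubilized Sf9 membrane reagent.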

Sequence	polyreactivity (PSR sort gate)
QVQLVESGGGLVQAGGSLRLSCAASGRILLRNVMGWYRQAPGKERELVAVITRTGITYYADSVMGRFTITRDNAKNTVYLQMTSLKPEDTAVYYCAAGLPKYEHDYWGQGTQVTVSS	low polyreactivity
QVQLVESGGGLVQAGGSLRLSCAASGRILLTYAMGWYRQAPGKERELVAAISSDSRTYYADSVKGRFTISRDNAKNTVYLQMNSLIPEDTAVYYCVRRRYKYDYWGQGTQVTVSS	low polyreactivity
QVQLVESGGGLVQAGGSLRLSCAASGRILPFNAMGWHRQAPGKERELVDAIRWRGSSTYYADSVKGRFTISRDNAKNTVYLQMNSLKPEDTAVYYCAAPSSVRGKVISADYGYWGQGTQVTVSS	high polyreactivity
QVQLVESGGGLVQAGGSLRLSCAASGRILPRNAMGWYRQAPGKERELVAGISSDGSPNYADSVKGRFTISRDKAKNTVYLQMNSLNPEDTAVYYCYADYLFYAFDYWGQGTQVTVSS	low polyreactivity
QVQLVESGGGLVQAGGSLRLSCAASGRILRGNAMGGYRQAPGKERELVADINYSDGSTYYADSVKGRFTISRDNAKNTVYLQMNSLKPEDTAVYYCAKKNPLVFTSGMDYWGQGTQVTVSS	low polyreactivity
QVQLVESGGGLVQAGGSLRLSCAASGRILRINPMGWYRQAPGKERELVAAISGSGGTTYYADSVKGRFTISRDNAKNTVYLQMNSLKPEDTAVYYCNKAIWYAEYDYWGQGTQVTVSS	low polyreactivity
QVQLVESGGGLVQAGGSLRLSCAASGRILRTYAMGWYIQAPGKERELVAAISRSGGSTYYADSVKGRFTLSRDNAKNTVAVQMTSLKPEDTAVYYCHKAYGGRGSKDEYWGQGTQVTVSS	high polyreactivity
QVQLVESGGGLVQAGGSLRLSCAASGRILRYYAMGWYRQAPGKERELVAVITSSDGSTYYADSVKGRFTISRDNAKNTVYLQMNSLKPEDTAVYYCAADYHWYRRPGYNYWGQGTQVTVSS	low polyreactivity
QVQLVESGGGLVQAGGSLRLSCAASGRILSPYAMGWYRQAPGKERELVAAITSGGRTHYADSVKGRFTISRDNAKNTVYLQMNSLKRVDTAVYYCAARVRSGWWVRDDYWGQGTQVTVSS	high polyreactivity
QVQLVESGGGLVQAGGSLRLSCAASGRILSSYAMGWNRQAPGKERELVAVISSGGNTYYADSVKGRFTISRDNAKNTVFLQMNSLKPEDTAVYYCNAARRGYLRRYYWGQGTQVNVSS	high polyreactivity
QVQLVESGGGLVQAGGSLRLSCAASGRILTFNTMGWYRQAPGKERELVAAIRSGGSTYYADSVKGRFTISRDNAKNTVFLQMNSLKPEDTAVYYCRGMGYWGQGTQVTVSS	high polyreactivity
QVQLVESGGGLVQAGGSLRLSCAASGRILTSNAMGWYRQAPGKERELVAAISWSGGSTYYADSVKGSFTISRDNAKNTVYLQMNSLKPDDSAVYYCAAPFTTTFDYSGQGTQVTVSS	low polyreactivity
QVQLVESGGGLVQAGGSLRLSCAASGRILTYYVMGWYRQAPGKERELVAAITDSGGITYADSVKGRFTISRDNAKNTVYLQMNSLKPEDTAVYYCAAVRFFLYYFDFSAYDYWGQGTQVTVSS	low polyreactivity
QVQLVESGGGLVQAGGSLRLSCAASGRILVGYAMGRYRQAPGKERELVAAINRSGSSTYYADSVKGRFTISRDNAKNTVYLQRNSLNPEDTAVYYCNAPSGNRYGPRYDYWGQGTQVTVSS	high polyreactivity
QVQLVESGGGLVQAGGSLRLSCAASGRILVPYAMGWYRQAPGKERELVAAINPRGGRTYYADSVKGRFTISRDNAKYTVYLQMNSLKPEDTAVYYCNALAHQYHRYEFGYWGQGTQVTVSS	low polyreactivity
QVQLVESGGGLVQAGGSLRLSCAASGRILVWYAMAWYRQAPGKERELVASISSTGGSTYYADSVKGRFTISRDNAKNTVYLQMNSLKPEDTAVYYCAAVIRSQDGRGYDYWGQGTQVTVSS	high polyreactivity
QVQLVESGGGLVQAGGSLRLSCAASGRILWFYAMGWYRQAPGKERELVAAISWNGGSTYYADSVKGRFTISRDNAKNTVYLQMNSLKPEDTAVYYCAARPFHIHLSLEYNYWGQGTQVTVSS	low polyreactivity
QVQLVESGGGLVQAGGSLRLSCAASGRILWGYAMGWYRQATGKERELVATITRGGSTNYADSVKGRFTISRDNAKNTFYLKMNRVKPEDTAFYDCAAGELYIVNYTYYFEMDYWGEGTQVTVSS	high polyreactivity
QVQLVESGGGLVQAGGSLRLSCAASGRILWQYAMGWYRPAPGKERELVAAITSSGADTYYADSVKGRFTISRDNAKNTVYLQMNSLKPEDTAVYYCNADASAVVYKFGFGYWGQGTQVTVSS	low polyreactivity
QVQLVESGGGLVQAGGSLRLSCAASGRILWSYAMGWYRQAPGKERELVAAITSGTRTNYADSVKGRFTISRDNAKNTVYLQMNSLKPEDTAVYYCAADRYWPAFYRTRGWDYYYWGQGTQVTVSS	high polyreactivity
QVQLVESGGGLVQAGGSLRLSCAASGRILYCYTMGWYRQAPGKERELVAGITTRGGNTYYADSVKGRFTISRDNAKNSVYLQMNSLKPEDTAVYYCAARFSGPARMDYWGQGTQVTVSS	low polyreactivity
QVQLVESGGGLVQAGGSLRLSCAASGRILYGNVMGWYRQAPGKERELVAAIDSSGATTYYADSVKGRITISRDNAKNTVYLQMNSLKPDDTAVYYCAAEVTSFSFGGDATEYYWGQGTQVTVSS	low polyreactivity

Sequence	polyreactivity (PSR sort gate)
QVQLVESGGGLVQAGGSLRLSCAASGRILYGYALGWYRQAPGKERELVAAISWSGTRTYDADSVQGRFTISRDNAKNTVYLQMNSLKPEDTAVYYCAARTHVPAEYDYWGQGTQVTVSS	high polyreactivity
QVQLVESGGGLVQAGGSLRLSCAASGRILYIYAMGWYRQAPGKERELVAAIRSSGGSTYYADSVKGRFTISRDNAKNTVYFQMNSLKPEDTAVYYCAAPDFPKYYPTAYLQADEYWGQGTQVTVSS	high polyreactivity
QVQLVESGGGLVQAGGSLRLSCAASGRILYKYSMGWYRQAPGKERELVAAINRSGGRTYYADSVKGRFTISRDNAKNTVYIQMNSLKPEDTAVYYCAARNPTSYGQFDYLGQGTQVTVSS	high polyreactivity
QVQLVESGGGLVQAGGSLRLSCAASGRILYPYAMGWYRQAPGKERESVAAITFRGGNTYYADSVKGRFTISRDQAKNTVYLQMNSLKPEDTAVYYCAAPQRWTYAYDYWGQGTQVTVSS	high polyreactivity
QVQLVESGGGLVQAGGSLRLSCAASGRILYWYAMGWYRQAPGKERELVAGIDWSGGSTYYADSVKGRFTISRDNAKNTVYLQMNSLKPEDTAVNYCNAVQNRGRGSHRGESTYYYWGQGTQVTVSS	low polyreactivity
QVQLVESGGGLVQAGGSLRLSCAASGRISAYNAMGWYRQAPGKERELVAGISTRTGSTYYADSVKGRFTISRDNAKNTVYLQMNSLKPEDTAVYYCAAYFWGVYFFGMDYWGQGTQVTVSS	low polyreactivity
QVQLVESGGGLVQAGGSLRLSCAASGRISESNDMGWYRPAPGKERELVAAISSSGGSTYYADSVKGRFTISRDNAKNTVYLQMNSLKPEDTAVDYCNAVYYRTVLKIGVYEYDYWGQGTQVTVSS	low polyreactivity
QVQLVESGGGLVQAGGSLRLSCAASGRISESNDMGWYRQAPGKERELVAAISSSGGSTYYADSVKGRFTISRDNAKNTVYLQMNSLKPEDTAVYYCAAQTGYSYGITWQFTKYNYWGQGTQVTVSS	low polyreactivity
QVQLVESGGGLVQAGGSLRLSCAASGRISFRYAMGWYRPAPGKERELVAAINRGGITNYADSVKGRFTISRDNAKNTVYLQMNSLKPEDTAVYYCAARWRGSGGFDYWGQGTQVTVSS	high polyreactivity
QVQLVESGGGLVQAGGSLRLSCAASGRISFRYAMGWYRQAPGKERELVAAINRGGITNYADSVKGRFTISRDNAKNTVYLQMNSLKPEDTAVYYCAARYASPRYKSKIAYWGQGTQVSVSS	high polyreactivity
QVQLVESGGGLVQAGGSLRLSCAASGRISFYYAMGWYRQAPGKERELVATISSSGGSTHYADSVKGRFTISRDNAKNTVYLQMNSLKPEDTAVYYCARDDSDRIWLEQSGYWGQGTQVTVSS	low polyreactivity
QVQLVESGGGLVQAGGSLRLSCAASGRISGGYDMGWYRQAPGKERELVAAITNTGGITYYADSVKGRFTISRDNAKNTVYLQMNSLKPEDTAVYYCNAEYEISFYVLFDYWGQGTQVTVSS	low polyreactivity
QVQLVESGGGLVQAGGSLRLSCAASGRISHYNAMGWYRQAPGKERELVAAISSRGGSTYYADSVKGRFTISRDNAKNTVYLQMNSLKPEDTAVYYCADTAGYWGQGTQVTVSS	high polyreactivity
QVQLVESGGGLVQAGGSLRLSCAASGRISIKNAMGWYRQAPGKERELVAAIRWSADSTYYADSVKGRFTISRDNAKNTVYLQMNSLIPEDTAVYYCAATGRLRYYWGQGTQVTVSS	high polyreactivity
QVQLVESGGGLVQAGGSLRLSCAASGRISKGYAMGWYRQAPGKERELVAAISWRTSSTYYADSVKGRFTISRDNAKNTVYLQMNSLKPEVTAVYYCAAETWLGSWRQVGMDYWGQGTQVTVSS	high polyreactivity
QVQLVESGGGLVQAGGSLRLSCAASGRISKYNAMGWYRQAPGKERELVAAINQRGTSTYYADSVKGRFTISRDNEMNTVYLQMNSLKPEDTAVYYCATTGYRFYLMDYWGQGTQVTVSS	low polyreactivity
QVQLVESGGGLVQAGGSLRLSCAASGRISLFNAMGWYRQAPGKERELVAAITYTGGSTYYADSVKGRFTISRDNAKNTVYLQMNSLKPVDTAVYYCAADPWTAKDDSWGQGTQVTVSS	high polyreactivity
QVQLVESGGGLVQAGGSLRLSCAASGRISLYYTMGWYRQAPGKEREFVAAISSTGGSTYYADSVKGRFTISRDNAKNTVYLQMNSLKPEDTAVYYCAKAYHATSDYWGQGTQVTVSS	low polyreactivity
QVQLVESGGGLVQAGGSLRLSCAASGRISPKNAMGWYRQAPGKERELVATIRKIGGRTYYADSVKGRFTISRDNAKYTVYLQMNSLKPEDTAVYYCATDFAPSYYPDRFDYWGQGTQVTVSS	low polyreactivity
QVQLVESGGGLVQAGGSLRLSCAASGRISQGYAMGWYRQAPGKERELVAVISRSGGSTYYADSVKGRFTISRDNAKNTVYLQMNSVKPEDTAVYYCASRYYWRGYYWGQGTQVTVSS	high polyreactivity
QVQLVESGGGLVQAGGSLRLSCAASGRISQIYARGWYRQAPGKERELVASISSSGSRTYYADSVKGRFTISRDHAKNTVYLQMNSLKPEDTAVYYCAATYLKVHGEYDYWGQGTQVTVSS	high polyreactivity
